Test [1] deals with HSP70 (ADP-bound) (human). Nature of the test: ITC, ADP. (ITC needs no label: the signal is the heat of the interaction.)
Test [2] concerns the target HSP70 (ATP-bound) (human). The experiment in a line: ITC, ATP.

The Kd is the equilibrium constant for the complex coming apart. A low value points to tighter binding.

Sequence of HSP70 (ATP-bound) (human) (chain, as listed by the source): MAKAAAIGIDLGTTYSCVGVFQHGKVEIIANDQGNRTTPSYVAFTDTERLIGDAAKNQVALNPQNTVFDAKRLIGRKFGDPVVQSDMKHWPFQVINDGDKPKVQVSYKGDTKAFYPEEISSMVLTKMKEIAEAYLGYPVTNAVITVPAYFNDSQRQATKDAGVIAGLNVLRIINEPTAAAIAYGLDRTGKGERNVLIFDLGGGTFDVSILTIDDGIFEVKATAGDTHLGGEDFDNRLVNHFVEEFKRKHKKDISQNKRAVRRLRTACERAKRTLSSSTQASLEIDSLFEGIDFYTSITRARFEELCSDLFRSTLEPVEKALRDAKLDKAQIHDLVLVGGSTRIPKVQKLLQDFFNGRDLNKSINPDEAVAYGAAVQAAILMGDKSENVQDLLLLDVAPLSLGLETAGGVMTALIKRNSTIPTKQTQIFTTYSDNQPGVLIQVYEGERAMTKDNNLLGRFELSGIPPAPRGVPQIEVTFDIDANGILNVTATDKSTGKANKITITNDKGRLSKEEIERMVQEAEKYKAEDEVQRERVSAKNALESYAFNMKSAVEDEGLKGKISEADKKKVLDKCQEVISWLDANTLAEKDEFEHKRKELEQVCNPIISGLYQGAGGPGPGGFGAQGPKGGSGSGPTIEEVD
Sequence of HSP70 (ADP-bound) (human) (chain, as listed by the source): as above

For NRLLLTG [NRLLLTG peptide], the dissociation constant Kd in test [1] was determined as 10 µM; in test [2] it was 1.25 mM.

The values are drawn from US10010560 (dated 2018).
